In US20250250330A1 (REVOPSIS THERAPEUTICS, published 2025):
Several values for one entry are separate records, joined by “and”; a condition that tells them apart may be missing. Equal values may be shown once.

Assays:
[1] = target: T1, rpVEGF164 (porcine/pig; AssayGenie_KPRT0149) (Porcine/Pig, UniProt P49151 27-190); test: ELISA on coated pig VEGF-A
T1 construct: Bought protein; also called Pig VEGF-A
T1 sequence (looked up): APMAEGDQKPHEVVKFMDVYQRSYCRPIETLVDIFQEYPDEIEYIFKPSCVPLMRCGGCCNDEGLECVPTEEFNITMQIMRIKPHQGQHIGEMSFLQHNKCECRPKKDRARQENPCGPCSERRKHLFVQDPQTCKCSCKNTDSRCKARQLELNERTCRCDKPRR

[2] = target: T2, rrANG-2 (rabbit; Speed Biosystems_YCP8015) (Rabbit, UniProt G1T9B3 19-496); test: ELISA on coated rabbit ANG-2
T2 construct: Bought protein; also called Rabbit ANG-2
T2 sequence: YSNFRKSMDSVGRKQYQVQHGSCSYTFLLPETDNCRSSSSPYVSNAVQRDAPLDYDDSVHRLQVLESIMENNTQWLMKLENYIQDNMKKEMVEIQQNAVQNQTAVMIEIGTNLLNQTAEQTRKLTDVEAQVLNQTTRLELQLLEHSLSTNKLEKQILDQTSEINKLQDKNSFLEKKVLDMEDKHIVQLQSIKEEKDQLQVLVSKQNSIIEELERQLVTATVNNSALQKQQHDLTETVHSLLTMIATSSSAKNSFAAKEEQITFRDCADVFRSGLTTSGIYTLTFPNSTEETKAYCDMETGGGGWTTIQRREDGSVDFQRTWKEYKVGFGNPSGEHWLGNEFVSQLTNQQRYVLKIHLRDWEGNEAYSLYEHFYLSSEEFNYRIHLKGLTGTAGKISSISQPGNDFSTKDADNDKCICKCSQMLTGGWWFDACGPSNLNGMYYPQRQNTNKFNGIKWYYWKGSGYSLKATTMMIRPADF

[3] = target: T3, Recombinant human VEGF165 (Peprotech, Cat #100-20) (human, UniProt P15692-4 27-191); test: ELISA on coated human VEGF-A (rhVEGF165)
T3 construct: Bought protein; also called rhVEGF165; rh VEGF165

[4] = target: T3, Recombinant human VEGF165 (Peprotech, …); test: ELISA; rhVEGF165 coated, anti-human IgG Fc-HRP detection
Text: The binding was detected by HRP-conjugated donkey anti-human IgG Fcγ antibody (Jackson ImmunoResearch Laboratories, Cat #709-035-098).

[5] = target: T4, Recombinant human VEGF121 (Peprotech, Cat #100-20A) (human, UniProt P15692-9 27-147); test: ELISA; rhVEGF121 coated, anti-human IgG Fc-HRP detection
T4 construct: Bought protein; also called rhVEGF121; rh VEGF121
T4 sequence (looked up): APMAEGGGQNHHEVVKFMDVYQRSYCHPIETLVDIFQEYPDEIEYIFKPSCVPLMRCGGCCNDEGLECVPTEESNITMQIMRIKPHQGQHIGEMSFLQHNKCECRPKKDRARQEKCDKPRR
Procedure: Donkey anti-human IgG Fcγ-HRP was used for detection (Jackson ImmunoResearch Laboratories, Cat #709-035-098) and visualized by TMB substrate. OD450 nm readings were measured by Victor 3 (PerkinElmer 1420 Multilabel Counter).

[6] = target: T5, rhVEGF-B_Peprotech (Peprotech_100-20B) (human, UniProt P49765-2 22-188); test: ELISA; target coated at 1 ug/mL, anti-human IgG Fc-HRP detection
T5 construct: Bought protein
T5 sequence (looked up): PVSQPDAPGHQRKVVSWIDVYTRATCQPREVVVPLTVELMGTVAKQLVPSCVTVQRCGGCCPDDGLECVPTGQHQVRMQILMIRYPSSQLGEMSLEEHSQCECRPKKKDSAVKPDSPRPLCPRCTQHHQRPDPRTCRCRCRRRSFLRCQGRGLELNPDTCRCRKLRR
Procedure: (§1) First, the binding to rhVEGF-B was tested in comparison with rhVEGF₁₆₅. rhVEGF-B or rhVEGF₁₆₅ was used to coat Corning 9017 medium binding plates at 1 μg/mL and […] per well. […] Donkey anti-human IgG Fcγ-HRP was used for detection. OD450 nm readings were measured by Victor 3.

[7] = target: T6, rhVEGF-B_AcroBio (AcroBio_VE6-H5225) (human, UniProt P49765 22-207); test: as above
T6 construct: Bought protein; not shown: His tag
T6 sequence (looked up): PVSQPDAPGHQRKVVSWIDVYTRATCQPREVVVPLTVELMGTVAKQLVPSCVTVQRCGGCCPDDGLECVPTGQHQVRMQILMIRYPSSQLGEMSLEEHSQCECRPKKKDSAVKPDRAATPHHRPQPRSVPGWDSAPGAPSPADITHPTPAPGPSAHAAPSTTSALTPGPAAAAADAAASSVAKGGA
Procedure: as §1

[8] = target: T3, Recombinant human VEGF165 (Peprotech, …); test: as above
Procedure: as §1

[9] = target: T3, Recombinant human VEGF165 (Peprotech, …); test: as above; remark: listed apart in the source
Procedure: (§2) Third, the binding to rhPIGF-1 or rhPIGF-3 was tested in comparison with rhVEGF₁₆₅. Target proteins were used to coat Corning 9017 medium binding plates at 1 μg/mL and 100 μl per well. […] Donkey anti-human IgG Fcγ-HRP was used for detection. OD450 nm readings were measured by Victor 3.

[10] = target: T3, Recombinant human VEGF165 (Peprotech, …); test: ELISA on rhVEGF165; biotinylated anti-VpreB antibody and streptavidin-HRP detection
[11] = target: T7, rhPlGF-1 (Peprotech_100-06) (human, UniProt P49763-2 19-149); test: ELISA: rhPlGF-1_Peprotech coated at 1 ug/mL, RO-101_Sample 1 from 100 nM in 1:3 dilutions, detected with anti-human IgG Fc-gamma-HRP
T7 construct: Bought protein; also called rhPIGF-1; PIGF-1
T7 sequence (looked up): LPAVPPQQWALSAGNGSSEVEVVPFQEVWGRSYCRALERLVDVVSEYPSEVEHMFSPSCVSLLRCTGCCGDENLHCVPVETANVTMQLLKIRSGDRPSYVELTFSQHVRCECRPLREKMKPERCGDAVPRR
Procedure: as §2

B1: RO-101 VEGF/ANG-2 bispecific surrobody (bispecific antibody, human IgG1, L234A L235A)
heavy 1: not shown
heavy 2: EVQLVESGGGLVKPGGSLRLSCAASGFTFSSYGMHWVRQAPGKGLEWVAGISADSGDKNYADSVKGRFTISRDNAKNSLYLQMNSLRAEDTAVYYCAKEFISWIYTFDYLDYWGQGTLVTVSSASTKGPSVFPLAPSSKSTSGGTAALGCLVKDYFPEPVTVSWNSGALTSGVHTFPAVLQSSGLYSLSSVVTVPSSSLGTQTYICNVNHKPSNTKVDKKVEPKSCDKTHTCPPCPAPEAAGGPSVFLFPPKPKDTLMISRTPEVTCVVVDVSHEDPEVKFNWYVDGVEVHNAKTKPREEQYNSTYRVVSVLTVLHQDWLNGKEYKCKVSNKALPAPIEKTISKAKGQPREPQVCTLPPSRDELTKNQVSLSCAVKGFYPSDIAVEWESNGQPENNYKTTPPVLDSDGSFFLVSKLTVDKSRWQQGNVFSCSVMHEALHNHYTQKSLSLSPG
light: QPVLHQPPAMSSALGTTIRLTCTLRNDHDIGVYSVYWYQQRPGHPPRFLLRYFSQSDKSQGPQVPPRFSGSKDVARNRGYLSISELQPEDEAMYYCAMGARSSVTHVFGSGTQLTVLSQPKATPSVTLFPPSSEELQANKATLVCLMNDFYPGILTVTWKADGTPITQGVEMTTPSKQSNNKYAASSYLSLTPEQWRSRRSYSCQVMHEGSTVEKTVAPAECS
notes: Format SgG1; also called Sample 1
EC50 [1]: 0.0198 nM
EC50 [2]: 0.011 nM
EC50 [3]: 0.0171 nM
EC50 [4]: 0.0401 nM and 0.0556 nM and 0.0417 nM
EC50 [5]: 0.0086 nM
EC50 [6]: > 100 nM
EC50 [7]: > 100 nM
EC50 [8]: 0.0165 nM
EC50 [9]: 0.0162 nM
EC50 [10]: 0.0057 nM
binding result [11]: no binding (tested: 100 nM (Log(nM) 2))
